Test results reported in PMC7033311, “The Eaf3 chromodomain acts as a pH sensor for gene expression by altering its binding affinity for histone methylated-lysine residues” (Bioscience Reports, 2020).
Where no end group is shown, it is not given here. [ ]: non-standard residue; d: D form. The star is where a group is joined. MTSL = spin label, CC1(C)C=C(CS*)C(C)(C)N1[O]; Lys(Me3) = C[N+](C)(C)CCCC[C@H](N)C(=O)O

T1: Eaf3 chromodomain (Eaf3 CD, residues 1-120), wild type (S. cerevisiae, UniProt Q12432 1-120)
T1 construct: Eaf3 chromodomain (CD), budding yeast (S. cerevisiae), residues 1-120; 15N-labelled for the NMR experiments; expressed from pET15b; also called WT Eaf3 CD; source: E. coli BL21(DE3)pLysS, purified (Ni-NTA, thrombin, Ni-NTA flow-through, Superdex75)
T1 sequence (looked up): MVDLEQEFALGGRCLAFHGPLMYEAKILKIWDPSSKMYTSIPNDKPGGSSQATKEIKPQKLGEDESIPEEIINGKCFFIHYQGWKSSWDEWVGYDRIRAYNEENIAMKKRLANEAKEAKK

T2: Eaf3 CD (residues 1-120) Q82A (S. cerevisiae, UniProt Q12432 1-120, Q82A)
T2 construct: Eaf3 chromodomain (CD), budding yeast (S. cerevisiae), residues 1-120, Q82A; 15N-labelled for the NMR experiments; source: E. coli BL21(DE3)pLysS, purified (Ni-NTA, thrombin, Ni-NTA flow-through, Superdex75)
T2 sequence (looked up): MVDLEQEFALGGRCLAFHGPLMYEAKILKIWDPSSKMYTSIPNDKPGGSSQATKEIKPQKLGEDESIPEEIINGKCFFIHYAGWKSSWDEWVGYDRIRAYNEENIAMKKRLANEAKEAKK

T3: Eaf3 CD (residues 1-120) G19A (S. cerevisiae, UniProt Q12432 1-120, G19A)
T3 construct: Eaf3 chromodomain (CD), budding yeast (S. cerevisiae), residues 1-120, G19A; 15N-labelled for the NMR experiments; source: E. coli BL21(DE3)pLysS, purified (Ni-NTA, thrombin, Ni-NTA flow-through, Superdex75)
T3 sequence (looked up): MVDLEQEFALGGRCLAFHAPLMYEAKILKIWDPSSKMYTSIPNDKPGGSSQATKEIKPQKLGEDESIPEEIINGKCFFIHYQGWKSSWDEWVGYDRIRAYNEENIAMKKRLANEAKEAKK

T4: Eaf3 CD (residues 1-120) W84Y (S. cerevisiae, UniProt Q12432 1-120, W84Y)
T4 construct: Eaf3 chromodomain (CD), budding yeast (S. cerevisiae), residues 1-120, W84Y; 15N-labelled for the NMR experiments; source: E. coli BL21(DE3)pLysS, purified (Ni-NTA, thrombin, Ni-NTA flow-through, Superdex75)
T4 sequence (looked up): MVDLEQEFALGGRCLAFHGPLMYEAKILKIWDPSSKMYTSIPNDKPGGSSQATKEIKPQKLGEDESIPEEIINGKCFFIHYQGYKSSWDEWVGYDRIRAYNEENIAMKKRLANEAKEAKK

T5: Eaf3 CD (residues 1-120) H18D (S. cerevisiae, UniProt Q12432 1-120, H18D)
T5 construct: Eaf3 chromodomain (CD), budding yeast (S. cerevisiae), residues 1-120, H18D; 15N-labelled for the NMR experiments; also called H18D Eaf3 CD; source: E. coli BL21(DE3)pLysS, purified (Ni-NTA, thrombin, Ni-NTA flow-through, Superdex75)
T5 sequence (looked up): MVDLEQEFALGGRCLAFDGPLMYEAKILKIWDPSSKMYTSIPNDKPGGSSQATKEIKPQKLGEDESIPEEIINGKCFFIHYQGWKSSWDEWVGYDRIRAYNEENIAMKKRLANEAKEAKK


Experiments:
Conditions in all cases: both partners purified
[1] = molecular target: T1, Eaf3 chromodomain (Eaf3 CD, residues …); experiment: NMR titration; 0.1 mM 15N-labelled WT or mutant Eaf3 CD titrated with unlabelled histone H3 peptide up to 1:88; 10 mM potassium phosphate pH 6.8, 20 mM NaCl, 5 mM DTT, 25°C; Kd by nonlinear fit of chemical shift change
[2] = molecular target: T2, Eaf3 CD (residues 1-120) Q82A; experiment: as above
[3] = molecular target: T3, Eaf3 CD (residues 1-120) G19A; experiment: as above
[4] = molecular target: T4, Eaf3 CD (residues 1-120) W84Y; experiment: as above
[5] = molecular target: T5, Eaf3 CD (residues 1-120) H18D; experiment: paramagnetic relaxation enhancement (NMR); MTSL-H3K36me3 peptide added to 0.3 mM 15N-labelled Eaf3 CD at 1:1; 10 mM potassium phosphate pH 6.8, 20 mM NaCl; paramagnetic against ascorbate-reduced sample
[6] = molecular target: T1, Eaf3 chromodomain (Eaf3 CD, residues …); experiment: as above

Binder | Kd [1] [µM] | Kd [2] [µM] | Kd [3] [µM] | Kd [4] [µM] | binding result [5] | binding result [6]
ART[Lys(Me3)]QTARKSTGGKAPRY [histone H3 peptide H3K4me3, titration peptide] | 2900 ± 10 | 2240 ± 280 | 800 ± 70 | 1590 ± 280 |  | 
TC(MTSL)GVK(me3)KPHRY (peptide, UniProt P61830 33-42, looked up, histone H3 residues 32-41 with Gly33Cys; also called MTSL-H3K36me3 peptide; paramagnetically labeled H3K36me3 peptide; source: synthetic peptide (SIGMA Genosys), labelled with MTSL) [MTSL spin-labelled H3K36me3 peptide (residues 32-41) with a Gly33Cys substitution] |  |  |  |  | binds | binds
